According to article PMC8249405, “Xanthomonas effector XopR hijacks host actin cytoskeleton via complex coacervation” (Nature Communications, 2021):

B1: HH peptide (peptide)
peptide: SLRRLDLQLEEITRQCSDIQKQLFMEDRE
notes: XopR of Xcc, HH motif (extended helix and WH2 alpha-helix); also called CC; CC peptide; source: synthetic peptide (GL Biochem)
B2: EHWH2 peptide (peptide)
peptide: SLRRLDLQLEEITRQCSDIQKQLFMEDREATPQEQHLLKTRAA
notes: XopR of Xcc, extended helix plus WH2-like motif; also called CCWH2; source: synthetic peptide (GL Biochem)
B3: MBP-EHWH2-msfGFP (domain or fragment)
chain: B2 peptide
notes: XopR of Xcc, EHWH2 stretch; also called chimeric protein EHWH2; source: E. coli BL21 (DE3) Rosetta, purified; not shown: MBP, N-terminal, kept; msfGFP, C-terminal, kept
B4: MBP-HH-msfGFP (domain or fragment)
chain: SLRRLDLQLEEITRQCSDIQKQLFMEDRE
notes: XopR of Xcc, HH motif; also called chimeric protein HH; source: E. coli BL21 (DE3) Rosetta, purified; not shown: MBP, N-terminal, kept; msfGFP, C-terminal, kept
B5: Xcc XopR-FL (aa 1-411) (natural protein)
chain: MRLSQLFNSRHRVAPEPHGANPNKTTPLIPGASPQHPLSQAPKSTTSQGASKSHRGMLASARKSLASLRKQLPLTCMGSSPTLETVESPPAHTAAVTPGRTQQQHGTQARVDQRWQPPVPNATDHERVQRPQPQPQQTPPTRQSMSVPPKPARAQQLHGPQRPVDPRMQPPIPERMRRDEGQPPQHDKPASPPVPITPAQSSLPSPRPQPGRQPSLRRLDLQLEEITRQCSDIQKQLFMEDREATPQEQHLLKTRAALIAWRNEVRDSQLEALLVALAPMEDIRAPRTTSSGLAMVQMDAMQHNRREVLKARRKSVDRAALARNYARAQRRLESLKQGDAPKEQIRRLQRMMQGYQNMLALEQIVRSTDDQLERLGAPRLMSGIPTTAEQRRQSFEKERDAHQEAIDNGYY
notes: type III effector XopR of Xanthomonas campestris pv. campestris (Xcc) strain 8004, aa 1-411; The methods list a C-terminal His6-Flag form and a C-terminal mRuby2-His6-Flag form; also called full-length XopR; XopR full-length; source: E. coli BL21 (DE3) Rosetta, purified (HisTrap, gel filtration)
B6: WH2 peptide (peptide)
peptide: QCSDIQKQLFMEDREATPQEQHLLKTRAA
notes: XopR of Xcc, WH2-like motif without the extended helix; source: synthetic peptide (GL Biochem)

What was measured:
[1] = molecular target: G-actin (monomeric Ca2+-ATP-actin from rabbit skeleton muscle) (rabbit, UniProt P68135 1-377); test: MST; peptides serially diluted and titrated into 10 uM LatB-actin; 50 mM Tris pH 7.4, 150 mM NaCl, 0.05% Tween 20; 22 °C; called label-free in the results; details: both partners purified
[2] = molecular target: F-actin (filaments assembled from rabbit skeleton muscle actin) (rabbit, UniProt P68135 1-377); test: co-sedimentation; high speed (100,000 x g, 20 min, 25 °C); 2 uM F-actin with a range of concentrations of the MBP-msfGFP fusion; SDS-PAGE; Hill fit; details: both partners purified
[3] = molecular target: the molecule itself; test: SEC; Superdex 200 Increase 10/300, 150 mM NaCl, against protein standards

Row | Binder | Kd [1] [µM] | Kd [2] [µM] | also measured
1 | B1 | 73.9 ± 63 |  | 
2 | B2 | 16.5 ± 4.53 |  | 
3 | B3 |  | 1 ± 0.06 | 
4 | B4 |  | 1.27 ± 0.05 | 
5 | B5 |  |  | stoichiometry N [3]: 3
6 | B6 | > 100 |  | 
